According to US20190161555A1 (ALLIGATOR BIOSCIENCE, published 2019):

T1: murine OX40 (murine, UniProt P47741 20-211, limits assumed)
T1 construct: also called mouse OX40
T1 sequence (looked up): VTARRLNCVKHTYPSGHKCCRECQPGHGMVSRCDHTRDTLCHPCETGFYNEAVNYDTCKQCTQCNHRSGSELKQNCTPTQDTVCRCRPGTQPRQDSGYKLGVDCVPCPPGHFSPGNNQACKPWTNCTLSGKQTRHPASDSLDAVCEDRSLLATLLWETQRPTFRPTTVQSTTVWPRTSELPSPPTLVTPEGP

T2: Human OX40 (R&D Systems, 3388-OX) (human, UniProt P43489 29-216)
T2 construct: bought; also called OX40-Fc; Human OX40 (R&D systems, #3358_OX)
T2 sequence (looked up): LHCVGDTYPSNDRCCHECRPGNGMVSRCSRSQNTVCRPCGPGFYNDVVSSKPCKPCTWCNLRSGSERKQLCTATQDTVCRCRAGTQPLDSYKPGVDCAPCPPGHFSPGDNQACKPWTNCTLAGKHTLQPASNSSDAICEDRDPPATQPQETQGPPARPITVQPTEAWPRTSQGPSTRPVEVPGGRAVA

T3: Construct 84: full length OX40 (human, UniProt P43489 29-277)
T3 construct: whole, on cells
T3 sequence (looked up): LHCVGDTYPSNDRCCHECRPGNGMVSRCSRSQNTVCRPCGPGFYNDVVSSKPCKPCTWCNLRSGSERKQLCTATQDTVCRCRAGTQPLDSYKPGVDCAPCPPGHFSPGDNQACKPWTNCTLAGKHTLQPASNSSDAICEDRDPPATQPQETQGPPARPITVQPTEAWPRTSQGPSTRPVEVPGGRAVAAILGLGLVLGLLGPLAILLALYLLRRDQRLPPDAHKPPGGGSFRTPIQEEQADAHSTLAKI

T4: human OX40 overexpressed on CHO cells (human, UniProt P43489 29-214; P25942 194-277)
T4 construct: extracellular domain;domain: transmembrane and intracellular part; also called hOX40; huOX40 (CHO)
T4 sequence (looked up): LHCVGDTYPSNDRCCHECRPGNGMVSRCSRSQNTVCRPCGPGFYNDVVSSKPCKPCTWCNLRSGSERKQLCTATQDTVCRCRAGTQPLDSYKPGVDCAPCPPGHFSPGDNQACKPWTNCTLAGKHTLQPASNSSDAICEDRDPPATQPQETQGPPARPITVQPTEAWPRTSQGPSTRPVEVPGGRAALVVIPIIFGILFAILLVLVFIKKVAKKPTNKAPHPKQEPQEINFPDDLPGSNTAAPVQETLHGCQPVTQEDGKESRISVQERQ

B1: 1482/1483 (antibody, V domains shown)
VH: EVQLLESGGGLVQPGGSLRLSCAASGFTFSSYAMSWVRQAPGKGLEWVSYISYYSGYTYYADSVKGRFTISRDNSKNTLYLQMNSLRAEDTAVYYCARGYGYLDYWGQGTLVTVSS
VL: DIQMTQSPSSLSASVGDRVTITCRASQSISSYLNWYQQKPGKAPKLLIYAASSLQSGVPSRFSGSGSGTDFTLTISSLQPEDFATYYCQQYGSLLTFGQGTKLEIK
notes: OX40 antibody, tested as IgG
B2: 1170/1171 (antibody, V domains shown)
VH: EVQLLESGGGLVQPGGSLRLSCAASGFTFGGYYMSWVRQAPGKGLEWVSYIPGSGGSTYYADSVKGRFTISRDNSKNTLYLQMNSLRAEDTAVYYCARYDYYWMDYWGQGTLVTVSS
VL: DIQMTQSPSSLSASVGDRVTITCRASQSISSYLNWYQQKPGKAPKLLIYAASSLQSGVPSRFSGSGSGTDFTLTISSLQPEDFATYYCQQGHGSYPHTFGQGTKLEIK
notes: OX40 antibody, tested as IgG
B3: 1526/1527 (antibody, V domains shown)
VH: EVQLLESGGGLVQPGGSLRLSCAASGFTFSGYSMYWVRQAPGKGLEWVSGIGYSGYGTYYADSVKGRFTISRDNSKNTLYLQMNSLRAEDTAVYYCARYYFHDYAAYSLDYWGQGTLVTVSS
VL: DIQMTQSPSSLSASVGDRVTITCRASQSISSYLNWYQQKPGKAPKLLIYAASSLQSGVPSRFSGSGSGTDFTLTISSLQPEDFATYYCQQYGSDSLLTFGQGTKLEIK
notes: OX40 antibody, tested as IgG
B4: 1514/1515 (antibody, V domains shown)
VH: EVQLLESGGGLVQPGGSLRLSCAASGFTFGYYYMSWVRQAPGKGLEWVSGISSYGSYTYYADSVKGRFTISRDNSKNTLYLQMNSLRAEDTAVYYCARSGYSNWANSFDYWGQGTLVTVSS
VL: DIQMTQSPSSLSASVGDRVTITCRASQSISSYLNWYQQKPGKAPKLLIYAASSLQSGVPSRFSGSGSGTDFTLTISSLQPEDFATYYCQQGDYTLFTFGQGTKLEIK
notes: OX40 antibody, tested as IgG
B5: 1168/1135 (antibody, V domains shown)
VH: EVQLLESGGGLVQPGGSLRLSCAASGFTFSGSSMSWVRQAPGKGLEWVSSISYYGGYTYYADSVKGRFTISRDNSKNTLYLQMNSLRAEDTAVYYCARYFPHYYFDYWGQGTLVTVSS
VL: not shown
notes: OX40 antibody, tested as IgG
B6: 1490/1135 (antibody, V domains shown)
VH: EVQLLESGGGLVQPGGSLRLSCAASGFTFSSYAMSWVRQAPGKGLEWVSGISYYGGYTYYADSVKGRFTISRDNSKNTLYLQMNSLRAEDTAVYYCARYYPHHYIDYWGQGTLVTVSS
VL: not shown
notes: OX40 antibody, tested as IgG
B7: 1542/1135 (antibody, V domains shown)
VH: EVQLLESGGGLVQPGGSLRLSCAASGFTFGSSSMYWVRQAPGKGLEWVSGIGYYSYSTSYADSVKGRFTISRDNSKNTLYLQMNSLRAEDTAVYYCARGYPHHYFDYWGQGTLVTVSS
VL: not shown
notes: OX40 antibody, tested as IgG

How the values were obtained:
murine OX40 = target: T1, murine OX40; experiment: ELISA
CD40 (Ancell) = CD40 (Ancell) (UniProt P25942 21-193, limits assumed); experiment: ELISA, CD40 coated
Sequence of CD40 (Ancell) (P25942 21-193 limits assumed): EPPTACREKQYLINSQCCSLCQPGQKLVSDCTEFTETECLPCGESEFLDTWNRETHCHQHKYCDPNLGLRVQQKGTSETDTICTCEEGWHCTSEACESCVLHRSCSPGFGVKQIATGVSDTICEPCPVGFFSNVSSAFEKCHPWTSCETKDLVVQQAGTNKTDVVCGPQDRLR
Description: (§1) ELISA plates were coated with human OX40 (R&D Systems, 3388-OX), CD40 (Ancell), or CD137 (R&D Systems) at 0.1 or 0.5 μg/ml. The ELISA plates were washed with PBST and then blocked with PBST+2% BSA for 1 h at room temperature and then washed again with PBST. The antibodies were added in dilution series to the ELISA plates for 1 h at room temperature and then washed with PBST. Binding was detected using goat anti human kappa light chain HRP, incubated for 1 h at room temperature. SuperSignal Pico Luminescent was used as substrate and luminescence was measured using Fluostar Optima.

CD137 (R&D Systems) = CD137 (R&D Systems) (UniProt Q07011 24-186, limits assumed); experiment: ELISA, CD137 coated
Sequence of CD137 (R&D Systems) (Q07011 24-186 limits assumed): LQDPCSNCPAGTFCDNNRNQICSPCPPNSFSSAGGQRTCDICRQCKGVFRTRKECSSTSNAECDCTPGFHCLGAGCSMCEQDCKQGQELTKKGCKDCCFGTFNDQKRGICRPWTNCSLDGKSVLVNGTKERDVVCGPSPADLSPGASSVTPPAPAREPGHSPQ
Description: as §1

[1] = target: T2, Human OX40 (R&D Systems, 3388-OX); experiment: ELISA, plates coated with human OX40, IgG
Description: as §1

[2] = target: T3, Construct 84: full length OX40; experiment: flow cytometry, 293-F cells transfected with the construct
Description: The transfected cells were incubated with human OX40 antibodies, human OX40L (hOX40L, RnD Systems), mouse OX40L (mOX40L, RnD Systems) and controls for 30 min 4° C. and then detected with a-huIgG-PE (Jackson Immunoresearch) 30 min 4° C. Cells were analyzed with FACS Verse (BD Biosciences). Binding to the different chimeric constructs were calculated as relative (mean fluorescence intensity) MFI compared to the binding of the isotype control.

[3] = target: Macaca mulatta OX40 on HEK cells (Macaca mulatta; human); experiment: flow cytometry, macOX40-HEK cells; ends of the 95% confidence interval
Description: For the assay, the transfected cells were incubated with the test antibodies and controls for 30 min at 4° C. and then detected with a-huIgG-PE (Jackson Immunoresearch) 30 min 4° C. Cells were analyzed by flow cytometry with FACS Verse (BD Biosciences).

[4] = target: T4, human OX40 overexpressed on CHO cells; experiment: flow cytometry, cells with human OX40; ends of the 95% confidence interval
[5] = target: T2, Human OX40 (R&D Systems, 3388-OX); experiment: SPR Biacore, human OX40 amine-coupled on CM5, antibody injected, 1:1 Langmuir
Description: Human OX40 (R&D systems, #3358_OX) was immobilized to the Biacore™ sensor chip, CM5, using conventional amine coupling. The tested antibodies and controls (serially diluted 1/3 or 1/2 100-2 nM) were analyzed for binding in HBS-P (GE, #BR-1003-68) at a flow rate of […]. The association was followed for 3 minutes and the dissociation for 20 minutes. Regeneration was performed twice using 50 mM NaOH for 60 seconds. The kinetic parameters and the affinity constants were calculated using 1:1 Langmuir model with drifting baseline. […] The kinetic parameters and the affinity constants were calculated using BIAevaluation 4.1 software.

| Binder | binding result (murine OX40) | binding result (CD40 (Ancell)) | binding result (CD137 (R&D Systems)) | EC50 [1] [pM] | relative MFI [2] [fold over isotype control] | EC50 [3] [µg/mL] | EC50 [4] [µg/mL] | Kd [5] [pM] | koff [5] [s⁻¹] | kon [5] [M⁻¹ s⁻¹] |
| --- | --- | --- | --- | --- | --- | --- | --- | --- | --- | --- |
| B1 | no binding | no binding | no binding | < 1000 | 24.9 | 0.157 to 0.312 | 0.082 to 0.182 | 753 | 0.000584 | 776000 |
| B2 | no binding | no binding | no binding | – | – | – | – | – | – | – |
| B3 | no binding | no binding | no binding | < 1000 | 21.4 | 0.292 to 0.589 | 0.172 to 0.429 | 430 | 0.000187 | 435000 |
| B4 | no binding | no binding | no binding | – | – | – | – | – | – | – |
| B5 | no binding | no binding | no binding | < 1000 | 29.6 | 0.0905 to 0.194 | 0.0636 to 0.131 | 327 | 0.000169 | 518000 |
| B6 | no binding | no binding | no binding | – | – | – | – | – | – | – |
| B7 | no binding | no binding | no binding | < 1000 | 29.4 | 0.722 to 1.41 | 0.322 to 0.552 | 463 | 0.0001 | 216000 |
